Laboratory results reported in publication PMC5750209, “Structural basis for DNA 3′-end processing by human tyrosyl-DNA phosphodiesterase 1”.

B1: 5IdU(-2) 20-mer (ssDNA)
DNA: GTAGAGGATCTAAAAGACUT
modifications: 5-iodouracil (5-iodo-dU) at nt 19
B2: -2G 12-mer duplex (dsDNA)
DNA 1: CACTGCGCAGTG
DNA 2: CACTGCGCAGTG
B3: 5IdU(-3) 20-mer (ssDNA)
DNA: GTAGAGGATCTAAAAGAUTT
modifications: 5-iodouracil (5-iodo-dU) at nt 18
B4: -2T 12-mer duplex (dsDNA)
DNA 1: CAATGCGCATTG
DNA 2: CAATGCGCATTG

Experiments:
Tdp1(Δ148) H263A = Tdp1(Δ148) H263A (Homo sapiens, UniProt Q9NUW8 149-608, H263A); assay: UV cross-linking (312 nm), SDS-PAGE and MS; cross-link via F259; Cross-linking: 10 mM Tris-HCl pH 7.5, 100 mM KCl, 5 µM each, 15 min room temperature then 15 min on ice, UV 312 nm 30 min on ice. Crystal complex: 50 mM HEPES pH 7.8, 50 mM NaCl, on ice, 110 µM complex; settings: protein: recombinant; tags: N-terminal His6; label: 5' 32P (tracer); 3' biotin-TEG; single strand
Tdp1(Δ148) H263A, sequence (Q9NUW8 149-608 H263A): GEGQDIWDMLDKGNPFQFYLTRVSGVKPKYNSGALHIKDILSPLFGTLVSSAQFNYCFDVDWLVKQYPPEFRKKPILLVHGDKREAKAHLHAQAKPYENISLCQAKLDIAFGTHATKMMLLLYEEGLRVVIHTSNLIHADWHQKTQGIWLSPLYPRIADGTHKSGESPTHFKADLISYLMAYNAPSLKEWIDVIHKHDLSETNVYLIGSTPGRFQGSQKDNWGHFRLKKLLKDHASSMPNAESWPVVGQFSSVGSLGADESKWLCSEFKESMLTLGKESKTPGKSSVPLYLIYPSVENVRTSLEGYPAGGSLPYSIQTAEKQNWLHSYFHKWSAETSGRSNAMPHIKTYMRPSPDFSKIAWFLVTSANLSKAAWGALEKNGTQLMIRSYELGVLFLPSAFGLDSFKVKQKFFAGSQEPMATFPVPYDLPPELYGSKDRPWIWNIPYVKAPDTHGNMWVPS

Tdp1(Δ148) [1] = target: T1, Tdp1(Δ148) (Homo sapiens, UniProt Q9NUW8 149-608); assay: X-ray crystal structure (2.04 Å); 3'-phosphorylated product complex; Cross-linking: 10 mM Tris-HCl pH 7.5, 100 mM KCl, 5 µM each, 15 min room temperature then 15 min on ice, UV 312 nm 30 min on ice. Crystal complex: 50 mM HEPES pH 7.8, 50 mM NaCl, on ice, 110 µM complex; settings: protein: recombinant; tags: N-terminal His6; chain copies: 2; blunt, self-complementary, 2 copies of one strand
T1 sequence (Q9NUW8 149-608, stated change not applied): as the sequence (Q9NUW8 149-608 H263A) above, with A115H counted along it

Tdp1(Δ148) [2] = target: T1, Tdp1(Δ148); assay: X-ray crystal structure (3.18 Å); product complex; Cross-linking: 10 mM Tris-HCl pH 7.5, 100 mM KCl, 5 µM each, 15 min room temperature then 15 min on ice, UV 312 nm 30 min on ice. Crystal complex: 50 mM HEPES pH 7.8, 50 mM NaCl, on ice, 110 µM complex; settings: protein: recombinant; tags: N-terminal His6; chain copies: 2; blunt, self-complementary, 2 copies of one strand

Row | Binder | binding result (Tdp1(Δ148) H263A) | other results
1 | B1 | binds | 
2 | B2 |  | binding result (Tdp1(Δ148) [1]): binds
3 | B3 | binds | 
4 | B4 |  | binding result (Tdp1(Δ148) [2]): binds
